This note sets out measurements from patent US20260109761A1 (IP2IPO INNOVATIONS, published 2026).

A word on the Kd: it is a measure of binding affinity in units of concentration. Read a low Kd as higher affinity.

Experiment [1] deals with T1, HEL19 31-49 SEQ ID No: 241.
T1 construct: alpha-helical mimic
T1 peptide: CAQDCRSRGSSGQPADLLQ
The experiment in a line: peptide-array ELISA on mimics of the human ZIP12 ECD (peroxidase conjugate, ABTS, CCD read-out); antibody concentration of this value not given. The method, then: (§1) The binding of antibody to each of the synthesized peptides was tested in a peptide-based ELISA. The peptide arrays were incubated with primary antibody solution (overnight at 4° C.). After washing, the peptide arrays were incubated with a 1/1000 dilution of an appropriate antibody peroxidase conjugate for one hour at 25° C. After washing, the peroxidase substrate 2,2′-azino-di-3-ethylbenzthiazoline sulfonate (ABTS) and […] of 3 percent H2O2 were added. After one hour, the colour development was measured. The colour development was quantified with a charge coupled device—camera and an image processing system.
Background: ELISA stands for enzyme-linked immunosorbent assay.

Experiment [2] concerns the target T2, LIN15 37-51 SEQ ID No: 226.
T2 peptide: RGSSGQPADLLQVLS
The description is as above. The protocol: as §1

In experiment [3] the target is T3, BETA22 32-53 SEQ ID No: 249 (not fully specified).
T3 construct: beta-turn mimic
T3 peptide: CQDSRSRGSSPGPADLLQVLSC
The description is as above. The method, then: as §1

The target in experiment [4] is T4, LOOP15 35-49 SEQ ID No: 238.
T4 construct: constrained mimic
T4 peptide: CRSRGSSGQPADLLC
Described as above. The method, then:
as §1

Experiment [5] addresses T5, HEL19 37-55 SEQ ID No: 244.
T5 construct: alpha-helical mimic
T5 peptide: CRGSCGQPADLLQVLSAGD
The description is as above. The method, then: as §1

Experiment [6] concerns the target T6, LOOP15 36-50 SEQ ID No: 239.
T6 construct: constrained mimic
T6 peptide: CSRGSSGQPADLLQC
Described as above. The method, then:
as §1

For experiment [7], the target named is T7, HEL19 38-56 SEQ ID No: 245.
T7 construct: alpha-helical mimic
T7 peptide: CGSSCQPADLLQVLSAGDH
The experiment is described as above. The method, then: as §1

Experiment [8] concerns the target T8, BETA22 31-52 SEQ ID No: 248 (not fully specified).
T8 construct: beta-turn mimic
T8 peptide: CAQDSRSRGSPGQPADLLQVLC
The experiment is described as above. The method, then: as §1

For a further experiment, the target named is T9, huZIP12-ECD-GST (human, UniProt Q504Y0 24-202).
T9 construct: also called hZIP12-ECD-GST; human ZIP12-ECD-GST; not shown: glutathione S-transferase (GST) tag
The experiment in a line: SPR single cycle kinetics, mAb captured on protein A, 3.12-800 nM huZIP12-ECD-GST. The protocol: Single Cycle Kinetics (SCK) involves first capturing the mAb onto the protein A sensor surface and then sequentially injecting a series of concentrations of huZIP12-ECD-GST over the surface starting at the lowest concentration and ending with the highest concentration. The final concentration is followed by a dissociation phase where buffer only is passed across the surface followed by regeneration, where the remaining bound huZIP12-ECD-GST is removed from the surface by injection of a 10 mM Glycine pH 1.5 and 50 mM NaOH solution. The SCK is repeated for each monoclonal antibody providing duplicate data and the kinetics of each interaction is evaluated by the Biacore software.
Referring to FIG. 6, there are shown the kinetic parameters obtained for all antibody variants when screened with the 3.12 nM to 800 nM huZIP12-ECD-GST. […] Affinity.

T9 sequence (Q504Y0 24-202): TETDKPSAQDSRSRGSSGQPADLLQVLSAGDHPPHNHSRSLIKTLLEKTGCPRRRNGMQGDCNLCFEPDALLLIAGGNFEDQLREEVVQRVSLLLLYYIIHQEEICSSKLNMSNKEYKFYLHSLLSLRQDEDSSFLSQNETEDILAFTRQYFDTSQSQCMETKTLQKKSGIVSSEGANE

B1: H3_W99H_L1 (antibody, V domains shown)
VH: QVQLVESGGGVVQPGRSLRLSCAASGFTFSDYGMHWVRQAPGKGLEWVAYISSGGTTIYYADTVKGRFTISRDNSKNTLYLQMNSLRAEDTAVYYCARHTNLYAMDYWGQGTTVTVSS
VL: DIVLTQSPDSLAVSLGERATINCRASKSVSTQGYSYMHWYQQKPGQPPKFLIYLASNLESGVPDRFSGSGSGTDFTLTISSLQAEDVAVYYCQHSREVPYTFGGGTKVEIKR
notes: Fc null human IgG1 / human kappa
B1: the value in experiment [1] worked out at 1700; in [2] it was 2570; in experiment [3], 1350; in experiment [4], 901; in experiment [5], 2760; in [6] it was 976. Moreover, the value in [7] worked out at 828; in [8], 2440. The molecule also yielded a Kd with huZIP12-ECD-GST of approximately 500 pM.
